T1: human Dkk-1 (Dickkopf-related protein 1) (human, UniProt O94907 32-266)
T1 sequence (looked up): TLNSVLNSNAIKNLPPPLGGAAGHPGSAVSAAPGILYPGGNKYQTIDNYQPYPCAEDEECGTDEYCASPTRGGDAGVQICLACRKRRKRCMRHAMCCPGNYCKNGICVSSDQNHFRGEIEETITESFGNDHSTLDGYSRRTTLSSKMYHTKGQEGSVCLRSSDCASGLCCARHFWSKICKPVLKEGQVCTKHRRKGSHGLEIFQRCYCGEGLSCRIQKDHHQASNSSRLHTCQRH

T2: human RANKL (receptor activator of nuclear factor kappa-B ligand) (human, UniProt O14788 140-317, limits assumed)
T2 sequence (looked up): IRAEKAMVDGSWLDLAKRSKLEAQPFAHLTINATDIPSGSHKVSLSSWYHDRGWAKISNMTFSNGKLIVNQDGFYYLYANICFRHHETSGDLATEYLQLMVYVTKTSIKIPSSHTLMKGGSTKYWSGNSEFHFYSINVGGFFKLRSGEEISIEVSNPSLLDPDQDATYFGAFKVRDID

B1: Dkk-1 neutralizing antibody (a Dkk-1 antibody having an IgG4 backbone and the same heavy and light chain variable region sequences as the mAb portion of the … (antibody, V domains shown)
VH: EVQLVESGGGLVQPGGSLRLSCAASGFTFSSYTMSWVRQAPGKGLEWVATISGGGFGTYYPDSVKGRFTISRDNAKNSLYLQMNSLRAEDTAVYYCARPGYNNYYFDIWGQGTTVTVSS
VL: EIVLTQSPATLSLSPGERATLSCHASDSISNSLHWYQQKPGQAPRLLIYYARQSIQGIPARFSGSGSGTDFTLTISSLEPEDFAVYYCQQSESWPLHFGGGTKVEIK
B2: exemplified bispecific antibody compound of Table 1 (anti-Dkk-1 IgG4 mAb with anti-RANKL scFv linked at the C-terminus of each heavy chain) (bispecific antibody)
heavy: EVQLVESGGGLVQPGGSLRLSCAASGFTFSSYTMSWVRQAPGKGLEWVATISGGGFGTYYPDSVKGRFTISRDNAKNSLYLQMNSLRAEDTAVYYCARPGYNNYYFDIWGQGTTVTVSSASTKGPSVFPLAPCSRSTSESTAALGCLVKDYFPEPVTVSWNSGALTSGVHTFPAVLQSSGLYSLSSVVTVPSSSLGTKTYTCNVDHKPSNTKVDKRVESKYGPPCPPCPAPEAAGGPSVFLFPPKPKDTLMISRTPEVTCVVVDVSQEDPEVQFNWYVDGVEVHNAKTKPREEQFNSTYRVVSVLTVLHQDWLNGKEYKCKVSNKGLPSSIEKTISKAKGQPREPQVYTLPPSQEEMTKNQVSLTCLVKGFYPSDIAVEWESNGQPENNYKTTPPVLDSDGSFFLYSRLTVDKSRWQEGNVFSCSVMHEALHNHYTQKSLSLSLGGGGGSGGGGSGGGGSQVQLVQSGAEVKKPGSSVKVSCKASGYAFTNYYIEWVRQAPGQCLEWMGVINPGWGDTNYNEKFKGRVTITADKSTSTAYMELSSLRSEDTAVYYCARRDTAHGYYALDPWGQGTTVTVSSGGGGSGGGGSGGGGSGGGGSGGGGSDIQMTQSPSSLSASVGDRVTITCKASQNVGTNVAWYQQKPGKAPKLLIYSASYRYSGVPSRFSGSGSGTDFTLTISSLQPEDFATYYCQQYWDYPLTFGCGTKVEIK
light: EIVLTQSPATLSLSPGERATLSCHASDSISNSLHWYQQKPGQAPRLLIYYARQSIQGIPARFSGSGSGTDFTLTISSLEPEDFAVYYCQQSESWPLHFGGGTKVEIKRTVAAPSVFIFPPSDEQLKSGTASVVCLLNNFYPREAKVQWKVDNALQSGNSQESVTEQDSKDSTYSLSSTLTLSKADYEKHKVYACEVTHQGLSSPVTKSFNRGEC
modifications: glycosylated at asparagine residue 296 of SEQ ID NO: 1
notes: also called Exemplified Bispecific Ab

Experiments:
[1] = biological target: T1, human Dkk-1 (Dickkopf-related protein 1); assay: cell-based or functional assay
[2] = biological target: T1, human Dkk-1 (Dickkopf-related protein 1); assay: SPR (Biacore 2000), antibody captured on protein A, antigen as analyte, 1:1 model, average of n=3
Method: (§1) A CM5 chip (Biacore, pin. BR-100530) containing immobilized protein A (generated using standard NHS-EDC amine coupling) on all four flow cells (Fc) is used to employ a capture methodology. Antibody samples are prepared at 0.2-10 μg/mL by dilution into running buffer. Human Dkk-1 samples are prepared at final concentrations of 100 nM, 50 nM, 25 nM, 12.5 nM, 6.25 nM, 3.125 nM, 1.5625 nM, 0.78125 nM, 0.390625 nM, 0.1953125 nM, and 0 (blank) nM by dilution into running buffer. Human RANKL are prepared at final concentrations of 100 nM, 50 nM, 25 nM, 12.5 nM, 6.25 nM, 3.125 nM, 1.5625 nM, 0.78125 nM, 0.390625 nM, 0.1953125 nM, and 0 (blank) nM by dilution into running buffer.
(§2) Each analysis cycle consists of (1) capturing antibody samples on separate flow cells (Fc2 and Fc3); (2) injection of each human Dkk-1 concentration over all Fc at 50 μL/min for 300 seconds followed by return to buffer flow for 1200 seconds to monitor dissociation phase; (3) injection of each human RANKL concentration over all Fc at 100 μL/min for 150 seconds followed by return to buffer flow for 1800 seconds to monitor dissociation phase; (4) regeneration of chip surfaces with injection of 10 mM glycine, pH 1.5, for 120 seconds at 5 μL/min over all cells; and (5) equilibration of chip surfaces with a 10 μL (60-sec) injection of HBS-EP+. Data are processed using standard double-referencing and fit to a 1:1 binding model using Biacore 2000 Evaluation software, version 2.0.3, to determine the association rate (kₒₙ, M⁻¹s⁻¹ units), dissociation rate (koff, s⁻¹ units), and Rₘₐₓ (RU units). The equilibrium dissociation constant (KD) is calculated from the relationship KD=koff/kₒₙ, and is in molar units.

[3] = biological target: T2, human RANKL (receptor activator of …); assay: cell-based or functional assay
[4] = biological target: T2, human RANKL (receptor activator of …); assay: SPR (Biacore 2000), antibody captured on protein A, antigen as analyte, 1:1 model, average of n=5
Method: as §1, §2

Binder | EC50, restoration of Wnt3a-induced TCF/LEF luciferase luminescence in MC3T3E1/Topflash cells [1] [nM] | Kd [2] [nM] | koff [2] [s⁻¹] | kon [2] [M⁻¹ s⁻¹] | IC50, reduction of RANKL-induced NF-kB driven luciferase luminescence in HEK293 cells expressing human RANK [3] [nM] | Kd [4] [nM] | koff [4] [s⁻¹] | kon [4] [M⁻¹ s⁻¹]
B1 | 6.61 | – | – | – | – | – | – | –
B2 | 5.3 | 0.0357 | 6.55e-05 | 1.83e+06 | 1.2 | 0.0874 | 4.2e-05 | 530000
